Experimental data: the supplement of paper PMC12042874
± gives the uncertainty stated by the source.

Experiment: amyloid nucleation score (Sup35N fusion, yeast selection) (log enrichment); library NNK1; higher = more nucleation; inactive = no reads after selection
Procedure, shortened: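 Growth for 7 days at 30°C on medium lacking adenine and uracil followed a 24-hour induction with 100 μM copper sulfate of psi-negative yeast expressing peptides of 20 random codons fused to Sup35N. Input and output plasmid inserts were sequenced with Illumina, and sequences with under 100 input reads were excluded. Nucleation score is the DiMSum log enrichment of output over input reads, centred on the mode score of non-aggregating sequences.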

Row | Substance | amyloid nucleation score
1 | MTGINYRAVRCAEGCRASRR | 0.216 ± 0.29
2 | IYYGQGICLVFAFNLLCNVL | 6.261 ± 0.048
3 | RKLDASHYMPVSDLEFCCMC | 6.752 ± 0.048
4 | LLGASLNVKPESDFLLPAKR | 0.175 ± 0.41
5 | HECRWRTVYNQ | 0.786 ± 0.93
6 | MNLSVSVPVHTRLDMMFM | 5.616 ± 0.049
7 | VSCLNLIVSWYYANFGN | -0.17 ± 0.32
8 | EACETLRLYELCLFKWERFR | 0.47 ± 0.58
9 | HHDMGSFFAVQSTSGTEGMG | -0.099 ± 0.37
10 | CCVNVPIFRRKFGTCSCKAW | 0.065 ± 0.93
11 | ESEWNIMPFDNLYLGRETVW | inactive
12 | FRLLGLTR | 0.087 ± 0.62
13 | KMEPGPRAKALGTNRRFLLK | inactive
14 | KYENGCTDTWGMTVASPLIK | -0.515 ± 1
15 | SRATSYKFSTGRCCWTGTVK | 0.072 ± 0.91
16 | IVFLKLWEQVGWTVIDNLGV | -0.552 ± 1.4
17 | LCFDVSFRYYGMGYIL | 0.165 ± 0.23
18 | FCFMYDGHEAWSKAFSRRNV | 0.196 ± 0.3
19 | LACTYLCWALC | -1.32 ± 0.86
20 | WFGLQYMSWVSIESYGQAAW | 0.875 ± 0.97
21 | AVFLY | -0.153 ± 0.33
22 | EGFITSSMALGLHFVLLGWV | -1.37 ± 1.3
23 | TLWYLLQITYVLKFKW | 0.301 ± 0.4
24 | LVSQTYNMVARLRSSLARVN | 0.243 ± 0.78
25 | NLGLDVCEYIVVTWLTNDWS | -0.258 ± 0.51

Row | Substance | amyloid nucleation score
26 | QCRITDSFCSGA | -0.163 ± 0.45
27 | MEHYLACIWITHVCF | 0.117 ± 1.1
28 | FGMWYSVRISTSLVYVMGVL | -0.23 ± 0.28
29 | GCYQYWCRSFHVGEIPVP | -0.003 ± 1.1
30 | TGNTIAVRLLGKTNWTLIKT | -0.1 ± 0.23
31 | MWNRFWLLDALLWGNYLSQS | 0.043 ± 0.33
32 | RSQNLGGVFGET | -0.066 ± 0.41
33 | WPSKAQAVFTNTSTLNVSRF | inactive
34 | VSCWRTVRTAF | 0.893 ± 0.59
35 | RLHAVTSLCR | 5.42 ± 0.1
36 | SFSLMGRFRSFMYACIVAAC | -0.936 ± 0.57
37 | TTVKYLWLYLGFVLGQGVNG | -0.303 ± 0.25
38 | PCSKAFRAVNISEAKIDFGN | -0.416 ± 0.5
39 | NISSIASVWVCVKVRYVSYS | 0.432 ± 0.59
40 | MYREYLGRSRRQFYFGTGKH | 3.82 ± 0.16
41 | NRYMWDFSIAGVGVRLWINS | -0.896 ± 0.55
42 | IPVWTYIVWAQESILQRGCW | 0.217 ± 0.46
43 | PSKPLGIIRLVSNQFPPSHK | 0.123 ± 0.29
44 | SSLPRPPMPKWSDV | 0.125 ± 0.88
45 | LFRWEGVATACSCGDDASFA | -0.668 ± 1.1
46 | SLGLFKIIRKPYHCSAPSQA | 0.551 ± 0.47
47 | QGMQICHQKHGAWSGYNGRE | -0.379 ± 0.29
48 | TMISLAFIIYPLNMAPMYME | 1.97 ± 0.45
49 | RVWMGFDWIEDESRLDSTM | 0.21 ± 0.82
50 | GYACTFVLA | 0.136 ± 0.51

Row | Substance | amyloid nucleation score
51 | FRMNRKVRC | 0.082 ± 0.29
52 | FYVANVACSCAFMLPITNVR | -0.461 ± 0.73
53 | FTFEFVNHMASVYRSLMYER | -0.356 ± 1.1
54 | SFLSVFAMFYVQLPCHNMVS | -0.15 ± 0.64
55 | GKSLLKSYCIRMPLFSRNTL | inactive
56 | ADLSISRWCLCGRNALGLFF | 5.12 ± 0.07
57 | SWNVVFKVPLGLRVLYGYLC | -0.197 ± 0.28
58 | HTESRSSYGYVCPGYNLISF | 0.2 ± 0.63
59 | YNSVKVNRFH | 1.3 ± 0.74
60 | DWANSTDFV | -0.195 ± 0.18
61 | WLRRCEGGKMSYSSLSTVES | -0.563 ± 0.45
62 | ALVTVIHAPVFYLWNAFYLC | 7.396 ± 0.048
63 | SVFELLCSPQSVNRTFNTPY | 1.09 ± 0.36
64 | RPCNEGFWLHNHGRSNSSSS | -0.462 ± 0.52
65 | VRSNGYHVMFNTINRVWDTV | 0.672 ± 0.44
66 | GTNWDMLCYIVLTYGVVRAF | -0.116 ± 0.51
67 | IFSLCSVLSSNIEECPS | -0.257 ± 0.8
68 | FYPRM | 0.781 ± 0.54
69 | CCHRGCGAFVGWMHQFGWYI | -0.186 ± 0.42
70 | MSSLIVYLRDAPRVLNLYVR | 2.5 ± 0.17
71 | PSSHWIAPNFVVN | inactive
72 | KGAVFVPETAPLI | 0.93 ± 1
73 | AGLWYNWRECSFHRVVVGYP | 0.737 ± 0.55
74 | GRSLAFTSYCLMKGLTSVSV | -0.383 ± 0.29
75 | LSSVNGVLGRIGHLVAPSSF | -0.066 ± 1

Row | Substance | amyloid nucleation score
76 | FAVLHNMMFMKYVRLFLVVT | 0.247 ± 0.45
77 | PGFYGPLIGFMWRCSARERC | 0.673 ± 0.37
78 | ECTRSGVFSCNSWIKYESSM | -0.145 ± 0.31
79 | VFIQMGHELDFQCEE | 0.527 ± 0.63
80 | MLSVRTGISGLQSVRTKALA | -0.33 ± 0.51
81 | PAPLQIRNMSSNAKTR | inactive
82 | GRVKINKNLSVYKYINFRDS | 2.04 ± 0.21
83 | AVFIGCVNAGS | 0.621 ± 0.39
84 | FMQLTYRMCGSPSIRVNGVL | 0.685 ± 0.34
85 | NELNLYGSEFAFYWVDKLCH | 4.13 ± 0.073
86 | CEVSIVSLARYVGREDLFDR | 0.213 ± 0.65
87 | DMDGDSLGVFWALATVYQAH | -0.551 ± 0.36
88 | CHLVSSTSAFA | 1.01 ± 0.56
89 | DSQMYTMH | -0.054 ± 0.71
90 | MRTVIITCCRTFECPMERCS | -2.56 ± 1.4
91 | VSWWNCLL | -1.28 ± 2.4
92 | CFPDICWHSVK | 0.125 ± 0.79
93 | VIVQKSLS | -0.086 ± 0.61
94 | TYLFF | inactive
95 | ILSLS | 0.038 ± 0.18
96 | NFGAQRYHSRLLL | -0.223 ± 0.59
97 | YDLGMLLF | 0.812 ± 0.77
98 | HMLIFYSGLCKPSFVYYLLY | 1.04 ± 0.58
99 | SVVFGSSYRNAVGCWTWSQG | 0.6 ± 0.4
100 | CFSSNCMEFLSNVLYKNINP | 0.626 ± 0.78

Row | Substance | amyloid nucleation score
101 | CFLYNSFYILDISELLQGST | 4.81 ± 0.049
102 | VRHDITARERLSGLWQ | -0.047 ± 1.1
103 | STVREFSVVGPYVTGSVAGR | 0.383 ± 0.71
104 | SRTHRDGTCYHSGTVKVHLP | -1.64 ± 2.7
105 | AFDGVS | -0.096 ± 1.7
106 | YDWNNLDVLLHCLFFGDKRR | -0.021 ± 0.26
107 | AIFKSITDPVLWSGLF | 0.562 ± 0.97
108 | GLVNLADTGTVVDPSKGWLG | -0.441 ± 0.61
109 | YFSKICRSLFDM | 0.906 ± 1.1
110 | YRPMYMVAEQWYYK | 0.896 ± 0.49
111 | VLRNDTMGAGANF | -1.3 ± 0.39
112 | LVWVS | 0.134 ± 0.65
113 | FSYTDNSTRFVTFQLRNIPA | 0.598 ± 0.33
114 | VSSNYMRNML | 0.169 ± 0.34
115 | SPVLIDVRGM | -0.413 ± 0.5
116 | VSLINRRYCPATVFGF | 0.117 ± 0.4
117 | WVWDGDIGGWNVKPFHRVRG | 0.121 ± 0.58
118 | FVKRF | 0.073 ± 0.4
119 | LGLRFTCRLFGCIYTRASIM | -0.735 ± 1.7
120 | VVLDAFIPWYSLLATSSVGA | -0.777 ± 2.4
121 | GRVQL | 0.405 ± 0.48
122 | CFVVCDMAF | inactive
123 | WAYYCYP | -2.01 ± 2.4
124 | RLTYSSCSGNLWYFRFKSVE | 0.415 ± 0.67
125 | EDRYGIVC | -0.25 ± 0.74

Row | Substance | amyloid nucleation score
126 | KEDIVLACIGSVKHVRAQWR | 5.97 ± 0.081
127 | HNWCYQNKGHVRGNKLCFRY | -0.112 ± 0.63
128 | VESFYVSIFGGGLRLKCSKS | 0.514 ± 0.46
129 | MFTNLQIWWDSMACYFWDVF | 0.923 ± 0.48
130 | WSHADILV | inactive
131 | YYLSLMYSTLYRTKIFWARE | -0.077 ± 0.79
132 | GLPLYVHVAVEVIWL | 0.058 ± 0.65
133 | RSPHVAGYNMKAGSDRSNIT | 0.052 ± 0.26
134 | MIWPDGQRLMRPTLRMYKTS | 0.279 ± 0.36
135 | SCACRYSDLVWVINSLRTVA | 0.46 ± 0.83
136 | VGCKP | -0.24 ± 0.75
137 | MYASWSVF | -0.223 ± 0.34
138 | GFGMFATTGKVLSMRAFQ | 0.025 ± 0.59
139 | FWIDLGMTLGTCRSFLSLRS | 0.217 ± 0.6
140 | LEKINQVSGLDFRRIEFEPS | -0.172 ± 1.2
141 | FDKFKNSTVREFMWVEFSVG | 0.745 ± 0.74
142 | YLSCLNFRLGSMFMRSL | 0.653 ± 0.93
143 | RFSMFRQFRSDLGCFPIMVP | 0.254 ± 0.72
144 | TLISSGNVHYMWKVTFLNNR | 4.8 ± 0.063
145 | VVMQACNLNMCFMNGCRRGC | 7.304 ± 0.045
146 | KWYNTPNSDWSV | -0.983 ± 1.7
147 | DFAFYTVTLCFE | 0.809 ± 0.35
148 | LNRSTDAFWNKIRTG | 1.01 ± 0.49
149 | SNDVAFMAIKKHRTLSYQTD | 0.165 ± 0.47
150 | RPKSEISSNFLVDMGFYREM | 0.808 ± 0.88

Row | Substance | amyloid nucleation score
151 | ETACLYLLFMSKACMRMMNS | -0.219 ± 1.1
152 | SNKRNYRLE | 0.401 ± 0.62
153 | HMNVPIDRSLGSFFFAKVMK | 0.867 ± 0.2
154 | MMPVRWHMFDAWDLWIDLER | -0.456 ± 0.88
155 | TRHFVTVFGCVDNRVEYLNG | 3.22 ± 0.1
156 | SMLRCLY | 0.758 ± 0.85
157 | HSSDLRAFLTDTFSRFYRIG | 0.911 ± 0.8
158 | QNQSFLINPWQGSKLVDPTA | 0.253 ± 0.53
159 | FASDRLYWTWK | 0.255 ± 0.53
160 | MQWPYCGMTFCYTW | -0.047 ± 0.57
161 | SRIFCTWPVSVIYNRADSAQ | 0.838 ± 0.56
162 | NSGNHDSCKFFGLLVRQMVG | 0.529 ± 0.46
163 | ISSWTHVW | 1.23 ± 0.85
164 | PERVVYANATAYRLLVKDAL | 0.247 ± 0.33
165 | FVMLFRFRVVCRFV | inactive
166 | LWLWHELHAIYMGMRGVSVL | inactive
167 | FYIVIDYFRNCAG | 0.005 ± 0.38
168 | RVVWVVFGWGLIHLGGLLCG | 0.146 ± 0.81
169 | SMLRNTNLNAIPKFTVSFVL | -0.021 ± 0.69
170 | YYNVCHNRINLVTSWFFYRR | 0.946 ± 0.78
171 | LRFIRRYIESHITFVRKLLK | inactive
